Source: patent US20230212549A1 (3B PHARMACEUTICALS, published 2023)
“And” between values parts separate entries of the source, which are not always exact repeats. Identical values can stand only once. Numbered stars: 1 amine (or outer) side, 2 acyl side, 3 side chain; on linkers, the order of the positions; unused ones are H or OH. Bridge positions count the residues as written; N and C are the ends. Square brackets hold non-standard residues; d marks the D form. Primed or numbered codes have the meaning given here. * marks the point of attachment. tMeBn(DOTA-PP) = 1,3,5-trimethylbenzylidene, two thioethers to Cys, third CH2 bound to one N of piperazine whose other N bears DOTA, O=C(O)CN1CCN(CC(=O)O)CCN(CC(=O)N2CCN(Cc3cc(C[*:1])cc(C[*:2])c3)CC2)CCN(CC(=O)O)CC1; Ttds″ = 1,13-diamino-4,7,10-trioxatridecan-succinamic acid spacer, O=C(CCC(=O)[*:2])NCCCOCCOCCOCCCN[*:1]; TBMB(SCH2CH2NH-DOTA) = O=C(O)CN1CCN(CC(=O)O)CCN(CC(=O)NCCSCc2cc(C[*:1])cc(C[*:2])c2)CCN(CC(=O)O)CC1; DOTA = O=C(O)CN1CCN(CC(=O)O)CCN(CC(=O)*)CCN(CC(=O)O)CC1; mXylylene = c1cc(C[*:1])cc(C[*:2])c1; Hexanoyl = CCCCCC(=O)*; NH(CH2)5NH2 = NCCCCCN*; GABA = NCCCC(=O)O; βAla = NCCC(=O)O

B1: Hex-[Cys(3MeBn)-Pro-Pro-Thr-Glu-Phe-Cys]-Asp-His-Phe-Arg-Asp-NH2 (peptide)
peptide: Hexanoyl-CPPTEFCDHFRD-NH2
modifications: linker 1-7 via mXylylene
SMILES: CCCCCC(=O)N[C@H]1CSCc2cccc(c2)CSC[C@@H](C(=O)N[C@@H](CC(=O)O)C(=O)N[C@@H](Cc2c[nH]cn2)C(=O)N[C@@H](Cc2ccccc2)C(=O)N[C@@H](CCCNC(=N)N)C(=O)N[C@@H](CC(=O)O)C(N)=O)NC(=O)[C@H](Cc2ccccc2)NC(=O)[C@H](CCC(=O)O)NC(=O)[C@H]([C@@H](C)O)NC(=O)[C@@H]2CCCN2C(=O)[C@@H]2CCCN2C1=O
B2: Hex-[Cys(tMeBn(DOTA-AET))-Pro-Pro-Thr-Gln-Phe-Cys]-Ser-OH (peptide)
peptide: Hexanoyl-CPPTQFCS-OH
modifications: linker 1-7 via TBMB(SCH2CH2NH-DOTA)
SMILES: CCCCCC(=O)N[C@H]1CSCc2cc(CSCCNC(=O)CN3CCN(CC(=O)O)CCN(CC(=O)O)CCN(CC(=O)O)CC3)cc(c2)CSC[C@@H](C(=O)N[C@@H](CO)C(=O)O)NC(=O)[C@H](Cc2ccccc2)NC(=O)[C@H](CCC(N)=O)NC(=O)[C@H]([C@@H](C)O)NC(=O)[C@@H]2CCCN2C(=O)[C@@H]2CCCN2C1=O
notes: also called 3BP-3658
B3: Hex-[Cys(tMeBn(DOTA-AET))-Pro-Pro-Thr-Gln-Phe-Cys]-Gly-OH (peptide)
peptide: Hexanoyl-CPPTQFCG-OH
modifications: linker 1-7 via TBMB(SCH2CH2NH-DOTA)
SMILES: CCCCCC(=O)N[C@H]1CSCc2cc(CSCCNC(=O)CN3CCN(CC(=O)O)CCN(CC(=O)O)CCN(CC(=O)O)CC3)cc(c2)CSC[C@@H](C(=O)NCC(=O)O)NC(=O)[C@H](Cc2ccccc2)NC(=O)[C@H](CCC(N)=O)NC(=O)[C@H]([C@@H](C)O)NC(=O)[C@@H]2CCCN2C(=O)[C@@H]2CCCN2C1=O
notes: also called 3BP-3656
B4: H-met-[Cys(3MeBn)-Pro-Pro-Thr-Glu-Phe-Cys]-Asp-His-Phe-Arg-Asp-NH2 (peptide)
peptide: H-[dM]CPPTEFCDHFRD-NH2
modifications: linker 2-8 via mXylylene
SMILES: CSCC[C@@H](N)C(=O)N[C@H]1CSCc2cccc(c2)CSC[C@@H](C(=O)N[C@@H](CC(=O)O)C(=O)N[C@@H](Cc2c[nH]cn2)C(=O)N[C@@H](Cc2ccccc2)C(=O)N[C@@H](CCCNC(=N)N)C(=O)N[C@@H](CC(=O)O)C(N)=O)NC(=O)[C@H](Cc2ccccc2)NC(=O)[C@H](CCC(=O)O)NC(=O)[C@H]([C@@H](C)O)NC(=O)[C@@H]2CCCN2C(=O)[C@@H]2CCCN2C1=O
notes: also called 3BP-2976
B5: Hex-[Cys(tMeBn(DOTA-PP))-Pro-Pro-Thr-Gln-Phe-Cys]-Asp-NH2 (peptide)
peptide: Hexanoyl-CPPTQFCD-NH2
modifications: linker 1-7 via tMeBn(DOTA-PP)
SMILES: CCCCCC(=O)N[C@H]1CSCc2cc(cc(CN3CCN(C(=O)CN4CCN(CC(=O)O)CCN(CC(=O)O)CCN(CC(=O)O)CC4)CC3)c2)CSC[C@@H](C(=O)N[C@@H](CC(=O)O)C(N)=O)NC(=O)[C@H](Cc2ccccc2)NC(=O)[C@H](CCC(N)=O)NC(=O)[C@H]([C@@H](C)O)NC(=O)[C@@H]2CCCN2C(=O)[C@@H]2CCCN2C1=O
B6: Hex-[Cys(3MeBn)-Pro-Pro-Thr-Glu-Phe-Cys]-Asp-Gab-Arg-NH2 (peptide)
peptide: Hexanoyl-CPPTEFCD[GABA]R-NH2
modifications: linker 1-7 via mXylylene
SMILES: CCCCCC(=O)N[C@H]1CSCc2cccc(c2)CSC[C@@H](C(=O)N[C@@H](CC(=O)O)C(=O)NCCCC(=O)N[C@@H](CCCNC(=N)N)C(N)=O)NC(=O)[C@H](Cc2ccccc2)NC(=O)[C@H](CCC(=O)O)NC(=O)[C@H]([C@@H](C)O)NC(=O)[C@@H]2CCCN2C(=O)[C@@H]2CCCN2C1=O
notes: also called 3BP-3300
B7: Hex-[Cys(3MeBn)-Pro-Pro-Thr-Gln-Phe-Cys]-Asp-Ttds-Lys(DOTA)-NH2 (peptide)
peptide: Hexanoyl-CPPTQFCD[Ttds″]K(DOTA)-NH2
modifications: linker 1-7 via mXylylene
SMILES: CCCCCC(=O)N[C@H]1CSCc2cccc(c2)CSC[C@@H](C(=O)N[C@@H](CC(=O)O)C(=O)NCCCOCCOCCOCCCNC(=O)CCC(=O)N[C@@H](CCCCNC(=O)CN2CCN(CC(=O)O)CCN(CC(=O)O)CCN(CC(=O)O)CC2)C(N)=O)NC(=O)[C@H](Cc2ccccc2)NC(=O)[C@H](CCC(N)=O)NC(=O)[C@H]([C@@H](C)O)NC(=O)[C@@H]2CCCN2C(=O)[C@@H]2CCCN2C1=O
notes: also called 3BP-3395
B8: Hex-[Cys(3MeBn)-Pro-Pro-Thr-Glu-Phe-Cys]-Asp-Ttds-Lys(DOTA)-NH2 (peptide)
peptide: Hexanoyl-CPPTEFCD[Ttds″]K(DOTA)-NH2
modifications: linker 1-7 via mXylylene
SMILES: CCCCCC(=O)N[C@H]1CSCc2cccc(c2)CSC[C@@H](C(=O)N[C@@H](CC(=O)O)C(=O)NCCCOCCOCCOCCCNC(=O)CCC(=O)N[C@@H](CCCCNC(=O)CN2CCN(CC(=O)O)CCN(CC(=O)O)CCN(CC(=O)O)CC2)C(N)=O)NC(=O)[C@H](Cc2ccccc2)NC(=O)[C@H](CCC(=O)O)NC(=O)[C@H]([C@@H](C)O)NC(=O)[C@@H]2CCCN2C(=O)[C@@H]2CCCN2C1=O
notes: also called 3BP-3396
B9: Hex-[Cys(3MeBn)-Pro-Pro-Thr-Glu-Phe-Cys]-Bal-OH (peptide)
peptide: Hexanoyl-CPPTEFC[βAla]-OH
modifications: linker 1-7 via mXylylene
SMILES: CCCCCC(=O)N[C@H]1CSCc2cccc(c2)CSC[C@@H](C(=O)NCCC(=O)O)NC(=O)[C@H](Cc2ccccc2)NC(=O)[C@H](CCC(=O)O)NC(=O)[C@H]([C@@H](C)O)NC(=O)[C@@H]2CCCN2C(=O)[C@@H]2CCCN2C1=O
notes: also called 3BP-3371
B10: Ac-Met-[Cys(3MeBn)-Pro-Pro-Thr-Glu-Phe-Cys]-Asp-His-Phe-Arg-Asp-NH2 (peptide)
peptide: Ac-MCPPTEFCDHFRD-NH2
modifications: linker 2-8 via mXylylene
SMILES: CSCC[C@H](NC(C)=O)C(=O)N[C@H]1CSCc2cccc(c2)CSC[C@@H](C(=O)N[C@@H](CC(=O)O)C(=O)N[C@@H](Cc2c[nH]cn2)C(=O)N[C@@H](Cc2ccccc2)C(=O)N[C@@H](CCCNC(=N)N)C(=O)N[C@@H](CC(=O)O)C(N)=O)NC(=O)[C@H](Cc2ccccc2)NC(=O)[C@H](CCC(=O)O)NC(=O)[C@H]([C@@H](C)O)NC(=O)[C@@H]2CCCN2C(=O)[C@@H]2CCCN2C1=O
notes: also called 3BP-2975
B11: Ac-Met-[Cys(3MeBn)-Gly-Pro-Thr-Glu-Phe-Cys]-Asp-His-Phe-Arg-Asp-NH2 (peptide)
peptide: Ac-MCGPTEFCDHFRD-NH2
modifications: linker 2-8 via mXylylene
SMILES: CSCC[C@H](NC(C)=O)C(=O)N[C@H]1CSCc2cccc(c2)CSC[C@@H](C(=O)N[C@@H](CC(=O)O)C(=O)N[C@@H](Cc2c[nH]cn2)C(=O)N[C@@H](Cc2ccccc2)C(=O)N[C@@H](CCCNC(=N)N)C(=O)N[C@@H](CC(=O)O)C(N)=O)NC(=O)[C@H](Cc2ccccc2)NC(=O)[C@H](CCC(=O)O)NC(=O)[C@H]([C@@H](C)O)NC(=O)[C@@H]2CCCN2C(=O)CNC1=O
notes: also called 3BP-3214
B12: Ac-Met-[Cys(3MeBn)-Pro-Pro-Thr-Glu-Phe-Cys]-Asp-His-Phe-Arg-Ala-NH2 (peptide)
peptide: Ac-MCPPTEFCDHFRA-NH2
modifications: linker 2-8 via mXylylene
SMILES: CSCC[C@H](NC(C)=O)C(=O)N[C@H]1CSCc2cccc(c2)CSC[C@@H](C(=O)N[C@@H](CC(=O)O)C(=O)N[C@@H](Cc2c[nH]cn2)C(=O)N[C@@H](Cc2ccccc2)C(=O)N[C@@H](CCCNC(=N)N)C(=O)N[C@@H](C)C(N)=O)NC(=O)[C@H](Cc2ccccc2)NC(=O)[C@H](CCC(=O)O)NC(=O)[C@H]([C@@H](C)O)NC(=O)[C@@H]2CCCN2C(=O)[C@@H]2CCCN2C1=O
notes: also called 3BP-3198
B13: Ac-Met-[Cys(3MeBn)-Pro-Pro-Thr-Glu-Phe-Cys]-Asp-Ala-Phe-Arg-Asp-NH2 (peptide)
peptide: Ac-MCPPTEFCDAFRD-NH2
modifications: linker 2-8 via mXylylene
SMILES: CSCC[C@H](NC(C)=O)C(=O)N[C@H]1CSCc2cccc(c2)CSC[C@@H](C(=O)N[C@@H](CC(=O)O)C(=O)N[C@@H](C)C(=O)N[C@@H](Cc2ccccc2)C(=O)N[C@@H](CCCNC(=N)N)C(=O)N[C@@H](CC(=O)O)C(N)=O)NC(=O)[C@H](Cc2ccccc2)NC(=O)[C@H](CCC(=O)O)NC(=O)[C@H]([C@@H](C)O)NC(=O)[C@@H]2CCCN2C(=O)[C@@H]2CCCN2C1=O
notes: also called 3BP-3195
B14: Ac-Met-[Cys(3MeBn)-Pro-Pro-Thr-Glu-Phe-Cys]-Asp-His-Ala-Arg-Asp-NH2 (peptide)
peptide: Ac-MCPPTEFCDHARD-NH2
modifications: linker 2-8 via mXylylene
SMILES: CSCC[C@H](NC(C)=O)C(=O)N[C@H]1CSCc2cccc(c2)CSC[C@@H](C(=O)N[C@@H](CC(=O)O)C(=O)N[C@@H](Cc2c[nH]cn2)C(=O)N[C@@H](C)C(=O)N[C@@H](CCCNC(=N)N)C(=O)N[C@@H](CC(=O)O)C(N)=O)NC(=O)[C@H](Cc2ccccc2)NC(=O)[C@H](CCC(=O)O)NC(=O)[C@H]([C@@H](C)O)NC(=O)[C@@H]2CCCN2C(=O)[C@@H]2CCCN2C1=O
notes: also called 3BP-3196

Each binder was assayed against T1, fibroblast activation protein (FAP) on FAP-expressing human WI-38 fibroblasts (human, UniProt Q12884 1-760) (assay: competitive FACS, WI-38 cells, vs Cy5 tracer m3; A = pIC50 >8.0).
T1 construct: also called human FAP

Binder | pIC50 Category (FACS) [pIC50]
B1 | > 8
Hexanoyl-CPPTQFCD-{NH(CH2)5NH2-DOTA′} (linker 1-7 via mXylylene, also called 3BP-3403) [Hex-[Cys(3MeBn)-Pro-Pro-Thr-Gln-Phe-Cys]-Asp-Ape-NH-DOTA′] | > 8
B2 | > 8
B3 | > 8
Hexanoyl-CPPTQFCD[Ttds″]-{NH(CH2)5NH2-DOTA′} (linker 1-7 via mXylylene, also called 3BP-3404) [Hex-[Cys(3MeBn)-Pro-Pro-Thr-Gln-Phe-Cys]-Asp-Ttds-Ape-NH-DOTA′] | > 8
B4 | > 8
B5 | > 8
B6 | > 8
B7 | > 8
B8 | > 8
B9 | > 8
B10 | > 8
B11 | > 8
B12 | > 8
B13 | > 8
B14 | > 8

These binders were tested against Recombinant human FAP (R&D systems, #3715-SE) (human, UniProt Q12884 26-760) (assay: cell-based or functional assay).

Binder | pIC50 Category (Activity)
B1 | > 8 pIC50
Hexanoyl-CPPTQFCD-{NH(CH2)5NH2-DOTA′} (linker 1-7 via mXylylene, also called 3BP-3403) [Hex-[Cys(3MeBn)-Pro-Pro-Thr-Gln-Phe-Cys]-Asp-Ape-NH-DOTA′] | > 8 pIC50
B2 | > 8 pIC50
B3 | > 8 pIC50
Hexanoyl-CPPTQFCD[Ttds″]-{NH(CH2)5NH2-DOTA′} (linker 1-7 via mXylylene, also called 3BP-3404) [Hex-[Cys(3MeBn)-Pro-Pro-Thr-Gln-Phe-Cys]-Asp-Ttds-Ape-NH-DOTA′] | > 8 pIC50
B4 | > 8 pIC50
B5 | > 8 pIC50
B6 | > 8 pIC50
B7 | > 8 pIC50
B8 | > 8 pIC50
B9 | 7.1 pIC50 and 8 pIC50
B10 | > 8 pIC50
B11 | > 8 pIC50
B12 | > 8 pIC50
B13 | 7.1 pIC50 and 8 pIC50
B14 | > 8 pIC50
